Laboratory results as given in patent US11001846B2, “Aptamers, nucleic acid molecules, polynucleotides, synthetic antibodies compositions for detecting PRRS viruses and treating PRRS virus infection” (AEROVIRUS TECHNOLOGIES INC., priority 2015, dated 2021).
Entries after “also recorded” stand apart in the source; their conditions may differ.

How the values were obtained:
LHVA-93-3 PRRS virus = assay: In-vivo lung virus titer, LHVA-93-3, comparison with control oligonucleotide and Tilmicosin (Example 4); design: species or system swine; details: for change in lung virus titer: LHVA-93-3, FIG. 13b
Procedure: Swine were inoculated intranasally with sub-lethal infectious fluid containing 40TCID50/ml PRRS virus (LHVA-93-3) with or without 2.5 nmole A505 aptamer for different time intervals. Pig body weight was monitored for 2 weeks. Viral titer in the lungs was determined by the CPE titration method (OIE Terrestrial Manual—May 2015, Chapter 2.8.7—Porcine Reproductive and Respiratory Syndrome, section 1.1.3). Other pigs were sacrificed 6 days following viral inoculation and lungs were removed and homogenized in PBS 0.1% BSA (10% w/v). Following homogenization, samples were centrifuged to remove debris and stored at −80° C.
The cells/viruses were incubated for 2-5 days and observe daily for a CPE. At day 2, seed macrophages in new microtitre plates. Fifty (50) μl of the supernatants were transferred from the plates of the first passage to the corresponding wells of the freshly seeded plates (second passage). The wells were incubated for 2-5 days and observed daily for a CPE. The results of the CPE assays were presented as log TCID50.
Tilmicosin (Pulmotil®) was purchased from Eli Lilly (Elanco®), Canada.
Were implemented as described hereinabove. A dose of 15 ug/Kg of A505 was used.
The ability of the A505 aptamer to inhibit PRRSV infection was also compared to that of one of the currently available “anti-PRRSV” drugs, the antibiotic Tilmicosin. To this end, both A505 and Tilmicosin were administered once, together with the virus, using the intra-nasal route. As is shown in Table 2 below, a dose of 60 mg/pig of Tilmicosin (1 mg/kg body weight) reduced virus titer by 0.42 log TCID50, representing a 2.6-fold reduction in virus burden. This is in comparison to a reduction by 1.21 log TCID50 affected by A505 in this particular experiment (over 10 fold reduction in virus burden).

[1] = test system: M-S-S-GP5 peptidic complex; assay: ELISA reverse screening: binding to M-S-S-GP5 peptidic complex, type 1; design: species or system type 1 PRRSV (Lelystad); details: type 1 PRRSV complex
Procedure: (§1) ssDNA aptamers were denatured at 80° C. for 10 min and then cooled on ice for 10 min. Aptamers (30 nmole) were mixed with 25 μg of M-S-S-GP5 peptidic complex (further described in Example 6 below) in 500 μl selection buffer (50 mM Tris-HCl; pH 7.4, 5 mM KCl, 100 mM NaCl, 1 mM MgCl2 tRNA, 0.2% BSA) at 37° C. for 30 min. Aptamer-peptide complex was purified by adding the 25 μl Ni-NTA superflow and amplified by PCR using primers directed to the common T3 sequences in the aptamer library, and 3′-primer (i.e. -[…]-3′). SELEX was repeated 3 times, following which amplified nucleotides were transformed into E. coli. PCR conditions for SELEX included 5 min 95° C./1 min 95° C./1 min 55° C./1 min 72° C./10 min 72° C. and 100 pmole of each primer.
Selected ssDNA molecules from each individual clone were biotinylated using the B-T3 which is same sequence with 5′ primer (T3 primer), and Klenow fragment (2 unit/ml). To prepare single stranded biotin conjugated CoocSeq5 aptamer for the reverse screening, T3 Primer was Biotin labelled. A 96-well flat bottom ELISA plate was prepared by coating each well with 100 μl of streptavidin (100 μg/ml) diluted in 0.1 M NaHCO3 following by a 37° C. overnight incubation. Following several washings with PBS, wells were blocked with 200 μl of PBS containing 1% BSA for 2 hours at room temperature and subsequent washing three times with PBS-T (10 mM PBS containing 0.05% (v/v) Tween-20). Thereafter, 100 μl of 2.5 pmole/100 μl biotinylated-ssDNA were added to the wells and incubated at 37° C. for 2 hours followed by washing four times with PBS-T. T3 primer was used as negative control. Following washing, 100 μl of fluid containing 2 μg histidine labelled M-S-S-GP5 peptidic complex were added to the indicated wells and incubated at 37° C. for 2 hours. The wells were then washed for 4 times with PBS-T. The reverse screening assay was completed by ELISA. […]

type 1 (Lelystad) PRRSV = details: after MTT screening of 10 candidates
Description: (§2) Using various tetrazolium (MTT) colorimetric assay procedures^[xxxvi], these aptamers have been “screened” to identify the ones having the highest and fastest binding capabilities for detection and therapeutics purposes for both types of PRRSV. It should be pointed out that the aptamer having the quickest binding efficiency but not necessarily the highest binding strength is the most suitable one for the biosensor.

[2] = test system: intact PRRS virus (LHVA-93-3); assay: ELISA binding to intact PRRS virus; design: species or system PRRSV; details: vs control ssDNA or between aptamers, FIG. 8a
[3] = test system: M-S-S-GP5 peptidic complex; assay: ELISA reverse screening: binding to M-S-S-GP5 peptidic complex, type 2; details: type 2 PRRSV complex
Procedure: as §1
Selected ssDNA molecules from each individual clone were biotinylated using the B-T3 which is same sequence with 5′ primer (T3 primer), and Klenow fragment (2 unit/ml). To prepare single stranded biotin conjugated CoocSeq5 aptamer for the reverse screening, T3 Primer was Biotin labelled. A 96-well flat bottom ELISA plate was prepared by coating each well with 100 μl of streptavidin (100 μg/ml) diluted in 0.1 M NaHCO3 following by a 37° C. overnight incubation. Following several washings with PBS, wells were blocked with 200 μl of PBS containing 1% BSA for 2 hours at room temperature and subsequent washing three times with PBS-T (10 mM PBS containing 0.05% (v/v) Tween-20). […]
High binding capacity ELISA plates (Immunoplate, Nunc) were coated with 100 μl allantoic fluid containing 500 TCID50 of various PRRS virus strains diluted in phosphate buffered saline (PBS) by incubating at 4° C. overnight. […] Following this incubation period, plates were washed five times in PBS-T and bound antibodies were detected using horseradish peroxidase labelled goat anti-mouse IgG conjugates (HRP). […] Reaction was terminated with 50 μl of 2M H2SO4, plates were read with a multichannel spectrophotometer at 570 nm.

type 2 PRRSV = details: after MTT screening of 10 candidates
Description: as §2

LHVA-3 PRRS virus = assay: MTT assay, in vitro protection of PAMs or MARC-145 cells from LHVA-3 infection; format: cell-based, PRRSV; details: 500 pmole; LHVA-3 and NVSL; FIG. 9b
Procedure: PAMs or MARC-145 cells were plated in 96 well plates (7×10^4/well) one day prior to the assay. […] Following infection, cells were incubated in growth medium at 37° C. for 72 hours. MTT assay was performed by adding 4 mg/ml MTT (3-[4,5-Dimethylthiazol-2-yl]-2,5-diphenyltetrazolium bromide dissolved in PBS to the cell cultures and incubation at 37° C. for 3 hours. Plates were then centrifuged at 800×g for 10 min. Supernatants were aspirated and the formazan dye was dissolved in 150 μl/well of isopropyl alcohol, and O.D. values were determined with an ELISA reader at 570 nm.
In Vitro Viral Protection Prior to Viral Infection PAMs or MARC-145 cells were plated on 96 well plates (7×10^4/well) 24 hours prior to the experiment. Each well was washed twice with DPBS prior to treating the cells with various amounts of A505 (12.5 to 2000 pmole) at 37° C. for the indicated time points. […] Following incubation, cells were transferred to growth medium and incubated at 37° C. for 72 hours. Thereafter an MTT assay was implemented as described.
In Vitro Viral Protection Following Viral Infection—PAMs or MARC-145 cells were plated on 96 well plates (7×10^4/well) 24 hours prior to viral infection. Viral infection was effected as described above. Infected cells were gently washed with DPBS for 3 times. Cells were then treated with various amounts of A505 (12.5 to 2000 pmole) for 1 hour at 37° C. Following incubation, cells were transferred to growth medium and incubated at 37° C. for 72 hours. Thereafter an MTT assay was implemented as described.

Question: For CC[C@H]1OC(=O)C[C@@H](O)[C@H](C)[C@@H](O[C@@H]2O[C@H](C)[C@@H](O)[C@H](N(C)C)[C@H]2O)[C@@H](CCN2C[C@H](C)C[C@H](C)C2)C[C@@H](C)C(=O)/C=C/C(C)=C/[C@@H]1CO[C@@H]1O[C@H](C)[C@@H](O)[C@@H](OC)[C@H]1OC [Tilmicosin, reference compound], which “Reduction Factor” value (LHVA-93-3 PRRS virus; Table 2, administered once with the virus, intra-nasal) is on record?
Answer: 2.6

Question: What about the “Δ (log TCID50), reduction of virus titer” value (LHVA-93-3 PRRS virus; administered once together with the virus, intra-nasal, Tilmicosin 60 mg/pig (1 mg/kg), A505 15 ug/Kg) of the same molecule?
Answer: 0.42 log TCID50

Question: And the “reduction in virus burden” value (LHVA-93-3 PRRS virus; administered once with the virus, intra-nasal)?
Answer: 2.6 fold

B1: PEU-424: ssDNA aptamer binding type 1 (Lelystad) PRRSV M-S-S-GP5 complex (nucleic acid)
DNA: GGGCGACCCTGAAGAGGATGTTGATAGAGCGCCGACCACACACGCACGAAACGGTGAAAGCCGTAGGTTGCCC
modifications: DNA, backbone and methylation of C not given here
Question: Which results are given for B1?
Answer: binding to the M-S-S-GP5 complex/heterodimer [1]: binding capacity to the M-S-S-GP5 complex; also recorded: found to bind the M-S-S-GP5 heterodimer; binding capabilities from biosensing and therapeutic perspectives (type 1 (Lelystad) PRRSV): good binding capabilities

B2: A501: ssDNA candidate aptamer for type 2 PRRSV M-S-S-GP5 complex; used as control irrelevant nucleotide in Example 4 (nucleic acid)
DNA: GGGCGACCCTGAAGAGAAAGGTGAGTTTATTGCGGGGGTTATTTATTGCTTCGAAACGGTGAAAGCCGTAGGTTGCCC
modifications: DNA, backbone and methylation of C not given here
Question: With B2 as the molecule, how does the “change in lung virus titer” value (LHVA-93-3 PRRS virus) read?
Answer: insignificant change in the viral titer

B3: A508: ssDNA aptamer binding type 2 PRRSV M-S-S-GP5 complex (nucleic acid)
DNA: GGGCGACCCTGAAGAGACTGGTGAGTTAATGTTTTTTCTTAGCCTTGTATCGAAACGGTGAAAGCCGTAGGTTGCCC
modifications: DNA, backbone and methylation of C not given here
Question: B3 was tested. Which “binding level to the intact virus” value [2] did it give?
Answer: significant binding

Question: What about the “binding to the M-S-S-GP5 complex/heterodimer” value [3] of the same molecule?
Answer: highly significant differences from the control ssDNA; also recorded: binding capacity to the M-S-S-GP5 complex; also recorded: found to bind the M-S-S-GP5 heterodimer

Question: And the “binding capabilities from biosensing and therapeutic perspectives” value (“binding capabilities” for short) (type 2 PRRSV)?
Answer: highest binding capabilities

Question: What about the “change in lung virus titer” value (LHVA-93-3 PRRS virus) of the same molecule?
Answer: less effective than A505 was still capable of reducing the lung virus titer

Question: What about the “in-vitro infectivity of the viruses / cell mortality” value (LHVA-3 PRRS virus) of the same molecule?
Answer: capable of reducing the in-vitro infectivity of the viruses

B4: PEU-852: ssDNA aptamer binding type 1 (Lelystad) PRRSV M-S-S-GP5 complex (nucleic acid)
DNA: GGGCGACCCTGAAGAGGACACTGCACGTACACAACGAGGATGAACACGAAACGGTGAAAGCCGTAGGTTGCCC
modifications: DNA, backbone and methylation of C not given here
Question: Which results are given for B4?
Answer: binding to the M-S-S-GP5 complex/heterodimer [1]: binding capacity to the M-S-S-GP5 complex; also recorded: found to bind the M-S-S-GP5 heterodimer; binding capabilities from biosensing and therapeutic perspectives (type 1 (Lelystad) PRRSV): good binding capabilities

B5: PEU-499: ssDNA aptamer binding type 1 (Lelystad) PRRSV M-S-S-GP5 complex (nucleic acid)
DNA: GGGCGACCCTGAAGAGTACACACGGGACACACACACACTCACTAGACGAAACGGTGAAAGCCGTAGGTTGCCC
modifications: DNA, backbone and methylation of C not given here
Question: How did the “binding to the M-S-S-GP5 complex/heterodimer” value [1] turn out when B5 was run?
Answer: binding capacity to the M-S-S-GP5 complex; also recorded: found to bind the M-S-S-GP5 heterodimer

Question: And the “binding capabilities” value (type 1 (Lelystad) PRRSV)?
Answer: good binding capabilities

B6: A507: ssDNA aptamer binding type 2 PRRSV M-S-S-GP5 complex (nucleic acid)
DNA: GGGCGACCCTGAAGAGGTTTGCATATTATAGTTATAGGAGGTGTGTAATGGACGAAACGGTGAAAGCCGTAGGTTGCCC
modifications: DNA, backbone and methylation of C not given here
Question: How did the “binding to the M-S-S-GP5 complex/heterodimer” value [3] turn out when B6 was run?
Answer: binding capacity to the M-S-S-GP5 complex; also recorded: found to bind the M-S-S-GP5 heterodimer

Question: And the “binding capabilities” value (type 2 PRRSV)?
Answer: highest binding capabilities

B7: PEU-842: ssDNA aptamer binding type 1 (Lelystad) PRRSV M-S-S-GP5 complex (nucleic acid)
DNA: GGGCGACCCTGAAGAGGACCAGAAGCACGGACCACACACAGCGTATCGAAACGGTGAAAGCCGTAGGTTGCCC
modifications: DNA, backbone and methylation of C not given here
Question: For B7, which “binding to the M-S-S-GP5 complex/heterodimer” value [1] is on record?
Answer: binding capacity to the M-S-S-GP5 complex; also recorded: found to bind the M-S-S-GP5 heterodimer

Question: And the “binding capabilities” value (type 1 (Lelystad) PRRSV)?
Answer: good binding capabilities

B8: PEU-962: ssDNA aptamer binding type 1 (Lelystad) PRRSV M-S-S-GP5 complex (nucleic acid)
DNA: GGGCGACCCTGAAGAGGATAGACAATAGCACACCACGCCCCTGCCACGAAACGGTGAAAGCCGTAGGTTGCCC
modifications: DNA, backbone and methylation of C not given here
Question: Which results are given for B8?
Answer: binding to the M-S-S-GP5 complex/heterodimer [1]: binding capacity to the M-S-S-GP5 complex; also recorded: found to bind the M-S-S-GP5 heterodimer; binding capabilities from biosensing and therapeutic perspectives (type 1 (Lelystad) PRRSV): good binding capabilities
